Results: the supplement of paper PMC9732359
± gives the uncertainty stated by the source.

Experiment: protein stability index of a GFP-peptide fusion (yeast GPS) (PSI 1-4); higher = more stable; sorted into four equal gates, so the index is relative within each strain
How it was run: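 Yeast carrying a pooled library were grown to mid-log phase in leucine-free medium. Each library plasmid expresses Cherry and has a tiled 17-residue yeast protein peptide fused downstream of GFP. Cells were sorted into four equal gates by GFP/Cherry ratio, and plasmids from each gate were PCR-amplified, Illumina-sequenced and assigned to strains by barcode. Summing, across gates, the read frequency times the gate number gave each peptide's protein stability index.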

Sequence	protein stability index (doa10∆)	protein stability index (pdr5∆)	protein stability index (san1∆)	protein stability index (ubr1∆)
FENCYLEGNDIHALAAK [FAS1]	2.83 ± 0.053	3.06 ± 0.049	2.88 ± 0.044	2.69 ± 0.041
DALKVVLRTALVHDGLA [RPS12]	2.5 ± 0.17	2.51 ± 0.14	2.72 ± 0.098	3.25 ± 0.1
MATNKIETLDPALIRPG [RPT2]	3.23 ± 0.1	3.31 ± 0.12	2.96 ± 0.081	3 ± 0.075
SRGLFEKKLMQDNKQLY [YDL116W/NUP84]	2.75 ± 0.067	3.06 ± 0.09	3.11 ± 0.078	2.93 ± 0.1
KNGLYQEAFKIYQHLAS [SRP72]	1.81 ± 0.061	2.14 ± 0.11	2.33 ± 0.23	2.77 ± 0.091
VAEGKSKQDASPKPYAV [RPL8A]	3.04 ± 0.12	3.29 ± 0.059	3.04 ± 0.07	3.02 ± 0.058
DEDKFKKLKPIVAKYDP [PRP28]	2.78 ± 0.077	2.9 ± 0.088	2.9 ± 0.094	1.98 ± 0.059
LSVVKYLLASLKDSKDF [RPN9]	2.19 ± 0.12	2.67 ± 0.16	–	–
AESEWNGVNVQTLKGVG [RPC37]	1.23 ± 0.075	1.79 ± 0.14	–	1.13 ± 0.18
ITRSVMRFNIEIIADWI [BRR2]	3.04 ± 0.071	2.7 ± 0.078	2.57 ± 0.097	3.16 ± 0.065
QPHIFNNPKVKTSKRTK [RPS11A]	2.95 ± 0.052	2.81 ± 0.061	2.98 ± 0.091	2.36 ± 0.031
GQLGLDDNDVPGPLPDT [YLR018C/POM34]	3.27 ± 0.2	2.94 ± 0.14	2.37 ± 0.23	–
EGSTIRYLAVTLQDIGF [YMR129W/POM152]	2.5 ± 0.048	2.58 ± 0.04	2.52 ± 0.052	2.71 ± 0.041
GVTSLIKNLGLPSDRCS [RPP1]	2.29 ± 0.068	2.26 ± 0.072	1.5 ± 0.12	1.69 ± 0.062
LAQKKAHLAEIQLNGGS [RPL3]	–	–	–	2.85 ± 0.12
FIMVKGCIPGNRKRIVT [RPL3]	1.39 ± 0.063	1.48 ± 0.08	1.57 ± 0.2	1.28 ± 0.06
LIQLGVKPLESSAKRSK [SRP72]	3.11 ± 0.073	2.97 ± 0.11	2.56 ± 0.12	2.88 ± 0.045
RPKKVKLEGSENSEPPA [SNF2]	3.13 ± 0.095	2.95 ± 0.08	3.33 ± 0.079	3.28 ± 0.063
PNLNMKYRKRQLVTREA [FAS2]	3.68 ± 0.15	3.13 ± 0.11	3 ± 0.095	3.05 ± 0.081
EVTKSSHVENLEEKLYQ [YIL149C/MLP2]	2.76 ± 0.073	2.97 ± 0.072	2.93 ± 0.052	2.98 ± 0.048
RRFNSSIGRTAQGKEFG [RPL17A]	3.03 ± 0.078	2.96 ± 0.089	2.95 ± 0.098	2.89 ± 0.07
KYFTELSHYIRQCFQDN [MED1]	2.38 ± 0.053	2.35 ± 0.06	1.92 ± 0.089	2.5 ± 0.038
AAANNNIKPVEQHHINN [GAL11]	2.97 ± 0.095	2.67 ± 0.066	2.72 ± 0.077	2.96 ± 0.062
IETVDDKLKDIVGQTSR [ITC1]	3.25 ± 0.07	3.01 ± 0.075	3.17 ± 0.086	3.03 ± 0.14
GSLACDTADEAKTLIPS [RPB4]	3.06 ± 0.1	3.42 ± 0.086	3.33 ± 0.051	3.17 ± 0.071

Sequence	protein stability index (doa10∆)	protein stability index (pdr5∆)	protein stability index (san1∆)	protein stability index (ubr1∆)
DKPLLKAGRAFHKYRLK [RPL2A]	2.96 ± 0.085	3.07 ± 0.058	2.16 ± 0.059	2.04 ± 0.061
RKRVYNIKFLSKLEGTI [ESC2]	–	3.51 ± 0.2	–	3.21 ± 0.16
ENCLNNDPEILKKIASI [SWI1]	2.48 ± 0.11	2.08 ± 0.074	2.48 ± 0.1	2.71 ± 0.092
GIDQYSFNVKENQPFHG [AAR2]	2.65 ± 0.058	2.88 ± 0.058	2.82 ± 0.048	2.9 ± 0.051
KRRVTNLEFNYTKPYPN [SMC2]	3.12 ± 0.071	2.88 ± 0.14	2.75 ± 0.16	2.81 ± 0.12
VIELPLKNPEIFQRVGI [RPT4]	2.17 ± 0.11	2.16 ± 0.21	2.46 ± 0.12	2.29 ± 0.17
FGHLKLALPVFHIGYFK [RPO31]	1.17 ± 0.073	1.22 ± 0.062	1.24 ± 0.13	1.13 ± 0.043
PHLPFSKSENPVLSTIA [SWI3]	1.95 ± 0.049	2.04 ± 0.048	2.03 ± 0.062	2.05 ± 0.028
VEYVDPTVNRVPNYEVS [RPN7]	3.37 ± 0.26	3.2 ± 0.16	2.92 ± 0.25	3.8 ± 0.15
YDNIDIQRGRILPTDGS [RPB7]	3.05 ± 0.28	3.06 ± 0.18	–	2.94 ± 0.24
QQQQIQVPLQQTQAIAQ [YGR119C/NUP57]	2.61 ± 0.061	2.82 ± 0.048	2.88 ± 0.039	2.885 ± 0.028
AGTTDNSFIKANLPWLG [RPN2]	1.48 ± 0.1	1.72 ± 0.064	1.39 ± 0.086	1.36 ± 0.065
FLSSFDDVLQTIITDCA [YJL039C/NUP192]	2.43 ± 0.045	2.07 ± 0.049	2.03 ± 0.062	2.38 ± 0.034
LVASAKGLQTVVVEEDA [RPL31A]	2.48 ± 0.091	2.51 ± 0.1	2.54 ± 0.087	2.42 ± 0.085
AAAQAQSKIDLTKKKNE [SEM1]	2.9 ± 0.079	2.83 ± 0.096	2.94 ± 0.082	2.87 ± 0.083
SPPCYIIDHIPGHSLLL [SNF5]	2.14 ± 0.063	2.54 ± 0.057	2.3 ± 0.079	2.49 ± 0.047
NSAIIQNLRKELLIYKK [YIL149C/MLP2]	3.14 ± 0.084	2.6 ± 0.11	3.23 ± 0.078	3.14 ± 0.053
IVKASNWRLVEVGRVVL [RPL14A]	2.8 ± 0.1	1.43 ± 0.13	–	1.69 ± 0.089
PQDYVLERVKRIMEKSV [YML031W/NDC1]	2.6 ± 0.059	2.66 ± 0.045	2.55 ± 0.087	2.12 ± 0.041
YLADDIDADSLEDIYTS [RPL5]	2.68 ± 0.095	1.96 ± 0.08	2 ± 0.08	2.37 ± 0.065
LSLGMDFIKFDQIAVCE [BRN1]	3 ± 0.085	3.01 ± 0.079	2.77 ± 0.057	2.89 ± 0.071
KDMKLLRYYKNIWLNNK [NUT1]	2.01 ± 0.065	1.65 ± 0.074	1.97 ± 0.15	1.28 ± 0.054
NGLLNEISRLKTSLSIK [SMC2]	3.1 ± 0.21	3.25 ± 0.11	3.12 ± 0.11	3.11 ± 0.15
TRIFQALPRKLRRRTAS [POP1]	2.33 ± 0.07	3.23 ± 0.11	2.68 ± 0.14	2.73 ± 0.074
NLDNLQKVSQLESADKQ [POP4]	3.06 ± 0.1	2.59 ± 0.1	3.01 ± 0.092	2.86 ± 0.18
